One data set concerns the target T1, eIF4B (yeast, UniProt P34167 1-436).
T1 sequence: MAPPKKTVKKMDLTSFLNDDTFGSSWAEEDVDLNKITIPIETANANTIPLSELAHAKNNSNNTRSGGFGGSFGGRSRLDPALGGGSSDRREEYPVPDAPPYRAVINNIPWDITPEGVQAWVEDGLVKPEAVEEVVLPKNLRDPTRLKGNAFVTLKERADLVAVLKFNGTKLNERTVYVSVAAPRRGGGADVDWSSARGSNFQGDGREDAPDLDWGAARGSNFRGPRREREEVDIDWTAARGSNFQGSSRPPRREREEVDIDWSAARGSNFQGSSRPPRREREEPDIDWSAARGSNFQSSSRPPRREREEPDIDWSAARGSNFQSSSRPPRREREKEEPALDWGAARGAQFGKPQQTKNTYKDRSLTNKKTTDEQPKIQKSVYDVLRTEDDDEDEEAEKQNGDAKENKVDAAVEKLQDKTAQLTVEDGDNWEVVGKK
The data set can be described thus: EMSA. On the technique in general: A gel shift assay detects complexes by their altered migration in electrophoresis.

Data set [1] addresses T2, eIF4A;eIF4B;eIF4G-MC (eIF4G) (yeast;yeast;yeast, UniProt P10081;P34167;P39935 1-395;1-436;572-952, ||).
T2 sequence 1: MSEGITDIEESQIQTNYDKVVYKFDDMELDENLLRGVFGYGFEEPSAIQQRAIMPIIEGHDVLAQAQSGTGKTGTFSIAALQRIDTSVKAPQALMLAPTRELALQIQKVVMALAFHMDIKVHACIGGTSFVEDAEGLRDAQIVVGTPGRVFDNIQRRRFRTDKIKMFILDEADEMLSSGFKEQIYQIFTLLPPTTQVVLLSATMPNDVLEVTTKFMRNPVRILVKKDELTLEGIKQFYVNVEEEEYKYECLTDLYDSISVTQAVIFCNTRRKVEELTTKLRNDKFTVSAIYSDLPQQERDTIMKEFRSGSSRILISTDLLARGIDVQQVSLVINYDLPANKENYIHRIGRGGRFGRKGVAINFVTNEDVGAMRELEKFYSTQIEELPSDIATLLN
T2 sequence 2: T1 sequence
T2 sequence 3: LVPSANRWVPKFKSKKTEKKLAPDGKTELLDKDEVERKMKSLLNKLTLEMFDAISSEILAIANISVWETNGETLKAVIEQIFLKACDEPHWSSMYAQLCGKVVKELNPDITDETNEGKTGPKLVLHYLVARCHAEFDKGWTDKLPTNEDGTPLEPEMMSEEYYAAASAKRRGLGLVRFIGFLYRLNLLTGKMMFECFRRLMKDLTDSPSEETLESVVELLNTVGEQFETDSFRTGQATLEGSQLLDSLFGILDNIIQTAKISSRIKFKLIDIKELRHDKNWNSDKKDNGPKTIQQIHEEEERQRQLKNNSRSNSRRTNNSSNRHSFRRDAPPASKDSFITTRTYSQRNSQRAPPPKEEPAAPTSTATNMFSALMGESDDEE
The data set can be described thus: fluorescence anisotropy. Background: In fluorescence polarisation assays a small probe gives low polarisation when free and higher when bound to something large.

For a further data set, the target named is T3, eIF4A;eIF4G-MC (eIF4G) (yeast;yeast, UniProt P10081;P39935 1-395;572-952, |).
T3 sequence 1: T2 sequence 1
T3 sequence 2: T2 sequence 3
The data set can be described thus: EMSA.

The next data set has as its target T4, eIF4G-MC (eIF4G) (yeast, UniProt P39935 572-952).
T4 sequence: T2 sequence 3
The data set can be described thus: EMSA.

B1: 30/10mer RNA (dsRNA)
RNA 1: GGGGAGAAAAACUAGCACCGUAAAGCACGC
RNA 2: GCUUUACGGU
Usually Kd stands for the equilibrium constant for the complex coming apart. Take B1: in the data set with eIF4B, the binding result was “binds”. The molecule also came in with a Kd in data set [1] of 1200 ± 300 nM.

B2: 20/10mer RNA (dsRNA)
RNA 1: ACUAGCACCGUAAAGCACGC
RNA 2: GCUUUACGGU
For B2, the binding result is listed as “binds” in the data set with eIF4A;eIF4G-MC (eIF4G) and “no binding” with eIF4G-MC (eIF4G). The molecule also displayed a dissociation constant Kd in data set [1] of 3500 ± 500 nM.

Values taken from PMC6547412.
